# Test results published in patent publication US20090098549, “SELEX AND PHOTOSELEX” (SOMALOGIC, INC., published 2009).
# B1: 2092-68-6 (ssDNA)
# DNA: ATATATATGAGTGACCGTCTGCCTGAGCUGCGGUUGAUGAUAUACUUCGCUUUCACUGCUCACAC
# modifications: X=ANA-dT, Z=BzdU
# Target: beta-catenin (UniProt P35222 P35222:2-781)
# Assay: photocrosslink returned to full activity without 3' fixed region
# Conditions: tags: NHS-PEO4-biotin or His tag (assay used TALON beads); label: 32P
# Method: Radiolabeled aptamer (100 pM) was denatured and renatured as described above, with, or without a 100-fold excess of unlabeled 3′ primer. The samples were incubated with or without 10 nM β-catenin protein in SB17 for 30 minutes at 37° C., after which complexes were crosslinked by irradiation with an OAI Hg lamp (Optical Associates, Inc. model 0131-0003-01, 500 W, with 310 nm mirror set) for 10 minutes at 37° C. Samples were mixed with 2× formamide loading buffer, heated for 10 minutes at 70° C., and loaded on a 10% polyacrylamide TBE-urea gel. Phosphorimages were collected with a FUJI FLA-3000 FIG. 7A. Crosslink activity was determined for each sample by quantifying the free aptamer and aptamer:protein signals with FUJI ImageGauge image analysis software and calculating the percent of total DNA crosslinked with target protein and subtracting the percent crosslinked without protein.
# Sequence of beta-catenin (P35222 2-781, one chain of several): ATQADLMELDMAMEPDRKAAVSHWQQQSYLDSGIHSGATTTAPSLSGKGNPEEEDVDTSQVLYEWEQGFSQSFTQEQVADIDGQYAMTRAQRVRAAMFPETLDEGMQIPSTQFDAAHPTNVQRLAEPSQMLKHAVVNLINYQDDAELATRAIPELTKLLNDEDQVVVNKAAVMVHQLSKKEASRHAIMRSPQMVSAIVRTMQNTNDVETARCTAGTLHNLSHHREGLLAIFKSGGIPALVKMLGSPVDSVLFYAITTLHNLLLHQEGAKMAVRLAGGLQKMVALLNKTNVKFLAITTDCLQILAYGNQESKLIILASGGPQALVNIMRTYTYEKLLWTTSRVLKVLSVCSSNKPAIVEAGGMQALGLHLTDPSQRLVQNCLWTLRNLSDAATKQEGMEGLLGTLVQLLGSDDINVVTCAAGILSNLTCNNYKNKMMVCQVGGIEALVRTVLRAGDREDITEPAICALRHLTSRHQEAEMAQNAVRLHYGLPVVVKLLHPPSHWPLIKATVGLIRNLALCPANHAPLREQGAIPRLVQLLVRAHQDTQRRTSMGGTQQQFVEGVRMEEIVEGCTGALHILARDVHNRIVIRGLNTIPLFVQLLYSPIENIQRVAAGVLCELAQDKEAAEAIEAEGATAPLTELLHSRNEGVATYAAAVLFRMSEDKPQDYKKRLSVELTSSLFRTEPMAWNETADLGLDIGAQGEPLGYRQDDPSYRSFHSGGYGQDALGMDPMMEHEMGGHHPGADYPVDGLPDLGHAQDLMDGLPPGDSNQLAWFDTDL
binder,measurement,value
B1,binding result,binds
